According to paper PMC7341897 (Nature cell biology, 2019):

Legend:
Survivin = Survivin (UniProt O15392); assay: fluorescent peptide partitioning into ISB coacervates; details: reference: unmodified H3 peptide; sites T3
[1] = molecular target: ISB complex lacking amino acids 139-160 of Borealin (UniProt Q9NQS7 1-58; O15392 1-142; Q53HL2 1-280, Δ139-160); assay: partitioning of a fluorescent client into preformed coacervates
[2] = molecular target: INCENP^1-58-Survivin-Borealin (ISB) complex, wild type (UniProt Q9NQS7 1-58; O15392 1-142; Q53HL2 1-280); assay: as above

Molecule	binding against the reference (Survivin)	binding result [1]	binding result [2]
histone H3 (synthetic N-terminal peptide) (from UniProt P68431) H3pT3 peptide	stronger		
hSgo1^1-112 labeled with CF555 (domain or fragment, human, UniProt Q5FBB7 1-112, looked up, CF-555 label (Mix-n-Stain CF-555 labeling kit)) MAKERCLKKSFQDSLEDIKKRMKEKRNKNLAEIGKRRSFIAAPCQIITNTSTLLKNYQDNNKMLVLALENEKSKVKEAQDIILQLRKECYYLTCQLYALKGKLTSQQTVEPA		binds	binds
